{"source": "patent US20200123212A1", "about": "(3M INNOVATIVE PROPERTIES, published 2020)", "binders": {"B1": {"name": "linker modified version of SEQ ID NO: 2 (CKWFEWPYWE) (peptide)", "peptide": "CKWFEWPYWE", "modifications": "also: immobilised on CM5 sensor chip via Lys of linker, conjugated to iodoacetyl magnetic beads via Cys of linker"}}, "key": {"[1]": {"biological_target": "T1, Recombinant Human Epidermal Growth Factor (EGF) (human, UniProt P01133 971-1023)", "T1 construct": "Bought reagent; also called EGF protein", "T1 sequence (P01133 971-1023 limits assumed)": "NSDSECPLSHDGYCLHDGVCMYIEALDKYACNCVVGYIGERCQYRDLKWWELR", "experiment": "dot blot, peptide spotted on nitrocellulose, EGF in solution, detected with anti-EGF-IgG-HRP", "procedure": "SEQ ID NO: 1 (1 microliter of a 10 nM solution in PBS containing 3 wt. % DMSO) and SEQ ID NO: 2 (1 microliter of a 10 nM solution in PBS containing 3 wt. % DMSO) were individually spotted at separate sites on a nitrocellulose membrane (obtained from Thermo Fisher Scientific, Waltham, Mass.) and the membrane was dried in air for about 30 minutes. The membrane was then incubated in 25 mL of blocking buffer (3 wt. % BSA in PBS) for one hour at room temperature. The membrane was washed three times (15 minutes for each wash) with 15 mL portions of fresh PBST. The washed membrane was incubated with EGF protein [10 microliters of a 100 ng/mL solution in blocking buffer (3 wt. % BSA in PBS)] with gentle agitation for one hour. The membrane was again washed three times (15 minutes for each wash) with 15 mL portions of fresh PBST. The washed membrane was incubated with anti-EGF-IgG-HRP [1:5000 dilution in 10 mL of the blocking buffer (3 wt. % BSA in PBS)] for one hour with gentle agitation. Following the incubation, the membrane was washed three times (15 minutes for each wash) with 15 mL portions of fresh PBST. The washed membrane was incubated with 10 mL of the development solution for horseradish peroxidase (TMB-Blotting Substrate Solution, Pierce-Fisher Scientific, Rockford, Ill.) with gentle agitation. The color development was stopped by adding water."}, "[2]": {"biological_target": "T1, Recombinant Human Epidermal Growth …", "experiment": "dot blot, EGF spotted on nitrocellulose, biotinylated peptide in solution, detected with Streptavidin-HRP", "procedure": "EGF (1 microliter of a 10 nM solution in PBS was spotted a nitrocellulose membrane (obtained from Thermo Fisher Scientific) and the membrane was dried in air for about 30 minutes. The membrane was then incubated in 15 mL of blocking buffer (3 wt. % BSA in PBS) for one hour at room temperature. The membrane was washed three times (15 minutes for each wash) with 15 mL portions of fresh PBST. The washed membrane was incubated with Biotinylated SEQ ID NO: 1 [10 mL of a 10 ng/mL solution in blocking buffer (3 wt. % BSA in PBS)] with gentle agitation for one hour. The membrane was again washed three times (15 minutes for each wash) with 15 mL portions of fresh PBST. The washed membrane was incubated with Streptavidin-HRP [1:5000 dilution in 10 mL of the blocking buffer (3 wt. % BSA in PBS)] for 30 minutes with gentle agitation. Following the incubation, the membrane was washed three times (15 minutes for each wash) with 15 mL portions of fresh PBST. The washed membrane was incubated with 10 mL of the development solution for horseradish peroxidase (TMB-Blotting Substrate Solution, Pierce-Fisher Scientific) with gentle agitation. The color development was stopped by adding water. A dark spot developed at the application site on the membrane indicating affinity of SEQ ID NO: 1 for EGF."}, "[3]": {"biological_target": "T1, Recombinant Human Epidermal Growth …", "experiment": "SPR (Biacore 3000, CM5), peptide immobilised, EGF injected at 62.5-1000 nM, 25 C, 1:1 Langmuir global fit", "procedure": "(§1) The following Test Method A was used for determining the binding affinity (KD) of SEQ ID NO: 1 for EGF and TNF-[…] Binding experiments were performed using Biacore 3000 optical biosensors equipped with research-grade CM5 sensor chips (GE Healthcare Bio-Sciences Corporation). The reagents used for the amine-coupling steps [(1-ethyl-3-(3-dimethylaminopropyl)-carbodiimide (EDC); N-hydroxysuccinimide (NHS); and ethanolamine hydrochloride-NaOH (1 M, pH 8.5)] were obtained from GE Healthcare Bio-Sciences Corporation. In order to efficiently immobilize the peptide on the sensor chips, a modified version of SEQ ID NO:1 was prepared by SPPS in which a “CK” amino acid linker sequence was added to the N-terminal end of the SEQ ID NO: 1 peptide (i.e. linker modified version of SEQ ID NO: 1 for immobilization being […]). A standard coupling protocol was employed to immobilize the linker modified version of SEQ ID NO: 1 via the lysine residue. The immobilization was performed at 25° C. using HBS-EP as the running buffer. The CM-dextran surfaces of the sensor chip flow cells were activated by a seven minute injection (20 microliters/minute) of freshly prepared 1:1 50 mM NHS: 200 mM EDC. A solution of linker modified SEQ ID NO: 1 in acetic acid (20 mM, pH 5.5) was injected to target 200 response units (RU). […]"}, "[4]": {"biological_target": "T2, Recombinant Human Tumor Necrosis Factor-alpha (TNF-alpha) (human, UniProt P01375 77-233)", "T2 construct": "Bought reagent; also called TNFα", "T2 sequence (P01375 77-233 limits assumed)": "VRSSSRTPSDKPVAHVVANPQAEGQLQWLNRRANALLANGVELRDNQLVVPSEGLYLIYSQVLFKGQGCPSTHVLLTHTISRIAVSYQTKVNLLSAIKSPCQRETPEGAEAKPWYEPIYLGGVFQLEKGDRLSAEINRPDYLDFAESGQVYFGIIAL", "experiment": "SPR (Biacore 3000, CM5), peptide immobilised, TNF-alpha injected at 62.5-1000 nM, 25 C, 1:1 Langmuir global fit", "procedure": "as §1"}, "[5]": {"biological_target": "T2, Recombinant Human Tumor Necrosis …", "experiment": "SPR (Test Method A of Example 3), peptide immobilised, TNF-alpha injected", "procedure": "as §1"}, "[6]": {"biological_target": "T1, Recombinant Human Epidermal Growth …", "experiment": "SPR (Test Method A of Example 3), peptide immobilised, EGF injected", "procedure": "as §1"}}, "note": "Where no end group is shown, it is not given here.", "data": [{"binder": "Ac-WFEWPYWEMNVPDVWN-NH2 (Chemically synthesised (SPPS))", "note": "[peptide SEQ ID NO: 1 (WFEWPYWEMNVPDVWN)]", "values": [{"measurement": "binding result", "setting": "[1]", "value": "binds"}]}, {"binder": "Ac-WFEWPYWE-NH2 (Chemically synthesised (SPPS))", "note": "[peptide SEQ ID NO: 2 (WFEWPYWE)]", "values": [{"measurement": "binding result", "setting": "[1]", "value": "binds"}]}, {"binder": "WFEWPYWEMNVPDVWN (also: biotinylated, site not given here)", "note": "[Biotinylated SEQ ID NO: 1]", "values": [{"measurement": "binding result", "setting": "[2]", "value": "binds"}]}, {"binder": "CKWFEWPYWEMNVPDVWN (also: amine-coupled to CM5 sensor chip via Lys of CK linker)", "note": "[linker modified version of SEQ ID NO: 1 (CKWFEWPYWEMNVPDVWN)]", "values": [{"measurement": "Kd", "setting": "[3]", "value": 0.087, "unit": "µM"}, {"measurement": "Kd", "setting": "[4]", "value": 75.1, "unit": "µM"}]}, {"binder": "B1", "values": [{"measurement": "Kd", "setting": "[5]", "value": 340, "unit": "µM"}, {"measurement": "Kd", "setting": "[6]", "value": 0.466, "unit": "µM"}]}]}
